Measurements reported in patent US20250270341A1 (Alector, published 2025).

T1: Full length mouse CD98hc on CHO cells (mouse, UniProt P10852 1-526)
T1 construct: CHO cells stably overexpressing it; also called CHO-mouse CD98hc; CHO-mCD98hc
T1 sequence: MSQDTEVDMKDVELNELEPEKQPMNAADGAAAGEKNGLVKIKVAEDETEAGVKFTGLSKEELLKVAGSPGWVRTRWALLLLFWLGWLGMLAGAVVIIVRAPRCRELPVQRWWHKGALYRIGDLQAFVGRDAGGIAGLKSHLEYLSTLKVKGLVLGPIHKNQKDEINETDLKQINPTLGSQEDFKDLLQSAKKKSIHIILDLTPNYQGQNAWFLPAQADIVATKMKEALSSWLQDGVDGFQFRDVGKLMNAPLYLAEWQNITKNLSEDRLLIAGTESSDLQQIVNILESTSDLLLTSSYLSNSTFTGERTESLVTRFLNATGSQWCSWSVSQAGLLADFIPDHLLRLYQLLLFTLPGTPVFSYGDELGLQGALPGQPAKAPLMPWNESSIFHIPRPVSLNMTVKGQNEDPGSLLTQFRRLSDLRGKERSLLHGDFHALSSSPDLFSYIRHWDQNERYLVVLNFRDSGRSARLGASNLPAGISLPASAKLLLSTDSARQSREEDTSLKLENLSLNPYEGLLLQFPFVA

T2: Full length human CD98hc on CHO cells (human)
T2 construct: CHO cells stably overexpressing it; also called CHO-human CD98hc; CHO-huCD98hc
T2 chain: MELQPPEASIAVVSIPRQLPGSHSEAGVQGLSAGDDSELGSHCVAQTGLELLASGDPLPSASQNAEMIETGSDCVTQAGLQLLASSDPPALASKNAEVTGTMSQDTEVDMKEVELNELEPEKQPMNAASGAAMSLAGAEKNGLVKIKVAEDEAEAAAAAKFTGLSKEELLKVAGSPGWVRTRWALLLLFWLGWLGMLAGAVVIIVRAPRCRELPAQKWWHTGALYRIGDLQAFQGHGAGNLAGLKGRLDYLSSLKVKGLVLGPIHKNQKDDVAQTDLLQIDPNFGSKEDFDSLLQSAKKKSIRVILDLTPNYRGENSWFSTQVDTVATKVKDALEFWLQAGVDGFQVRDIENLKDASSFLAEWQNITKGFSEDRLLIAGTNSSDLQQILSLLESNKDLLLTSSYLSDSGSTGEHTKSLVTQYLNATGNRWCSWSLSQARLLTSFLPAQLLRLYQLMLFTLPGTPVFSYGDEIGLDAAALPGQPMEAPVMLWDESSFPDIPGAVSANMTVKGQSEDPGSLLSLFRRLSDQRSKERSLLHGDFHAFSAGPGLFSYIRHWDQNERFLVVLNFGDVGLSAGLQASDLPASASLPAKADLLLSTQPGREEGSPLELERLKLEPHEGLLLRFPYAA

T3: human CD98hc endogenously expressed on HCMEC/D3 cells (human)
T3 construct: human brain endothelial cell line
T3 chain: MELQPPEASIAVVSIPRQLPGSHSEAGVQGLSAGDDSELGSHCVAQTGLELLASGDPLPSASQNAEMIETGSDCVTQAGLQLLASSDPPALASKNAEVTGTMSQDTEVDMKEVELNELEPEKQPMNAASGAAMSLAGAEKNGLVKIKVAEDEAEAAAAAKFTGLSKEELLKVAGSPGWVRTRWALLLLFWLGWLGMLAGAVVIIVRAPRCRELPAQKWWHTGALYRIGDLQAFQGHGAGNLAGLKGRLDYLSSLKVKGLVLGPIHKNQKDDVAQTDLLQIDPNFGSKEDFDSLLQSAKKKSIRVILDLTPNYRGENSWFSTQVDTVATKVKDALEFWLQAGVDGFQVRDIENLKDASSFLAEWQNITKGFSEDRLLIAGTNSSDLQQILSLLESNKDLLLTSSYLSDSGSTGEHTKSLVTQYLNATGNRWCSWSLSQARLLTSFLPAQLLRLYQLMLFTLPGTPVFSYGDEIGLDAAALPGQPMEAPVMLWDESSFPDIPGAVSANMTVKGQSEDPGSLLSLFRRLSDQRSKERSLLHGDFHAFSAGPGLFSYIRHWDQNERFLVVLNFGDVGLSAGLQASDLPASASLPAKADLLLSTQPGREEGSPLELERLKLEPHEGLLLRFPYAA


Tests used:
Experiment in all cases: FACS, hybridoma supernatant
[1] = target: T1, Full length mouse CD98hc on CHO cells
[2] = target: T2, Full length human CD98hc on CHO cells
[3] = target: T3, human CD98hc endogenously expressed on …
[4] = target: T1, Full length mouse CD98hc on CHO cells; remark: listed apart in the source
Text: The IgG positive hybridoma supernatants (898 in total) were initially screened for their ability to differentially bind CHO cells overexpressing human or mouse CD98hc cells compared to CHO parental cells by FACS. Overexpressing cells were harvested, washed, and labeled with various concentrations and combinations of CellTrace cell proliferation dyes CFSE and Violet (ThermoFisher, Cat #C34554 and Cat #34557, respectively) to create uniquely barcoded cell populations. Barcoded cells (5×10⁴ of each cell population) were aliquoted into 96-well U-bottom plates and incubated with 50 μl of hybridoma cell culture supernatant or 1 μg/ml of commercially available purified mouse anti-human CD98hc monoclonal antibody (Sigma Aldrich, Cat #SAB 4700503) and rat anti-mouse CD98hc antibody (Bio-Rad Laboratories, Hercules, CA, Cat #MCA2684) on ice for 30 minutes. […] Following this secondary antibody incubation, the cells were again washed twice with ice-cold FACS buffer and resuspended in a final volume of 50 μl of FACS buffer containing 0.25 μl/well propidium iodide (BD Biosciences, Cat #556463). Binding intensity on cells was analyzed using the FACS Canto system (BD Biosciences), with sorting gates drawn to exclude dead (i.e., propidium iodide-positive) cells. For each barcoded cell population, the ratio of APC Mean Fluorescence Intensity (MFI) divided by secondary antibody MFI was calculated for each anti-CD98hc hybridoma supernatant tested and reported in Table 5.

| Binder | MFI ratio over secondary antibody [1] | MFI ratio over secondary antibody [2] | MFI ratio over secondary antibody [3] | binding result [4] |
| --- | --- | --- | --- | --- |
| CD98HC.04.010 (antibody, V domains shown, hybridoma IgG) VH: QVQLQQSGAELMKPGASVKISCKATGYTFSTYWIEWVKQRPGHGLEWIGEILPGSGTTTYNEKFKGKATFTADTSSNTAYMQLSSLTSEDSAVYYCARRTVYYRYEGIDYWGQGTTLTVSS VL: QIVLTQSPAIMSASPGEKVTITCSASSSVSYMFWFQQRPGTSPKLWIYTTSNLASGVPARFSGSGSGTSYSLTISRMEAEDAATYYCQQKNNYPFTFGSGTKLEIK | 1.1 | 26.5 | 151 | no binding |
| CD98HC.04.013 (antibody, V domains shown, hybridoma IgG) VH: EVQLVESGGDLGMPGGSLKLSCAASGFALSGYDMSWVRQTPDKRLEWVAYLSSGGGSTYYPYTVKGRFTISRDNAQNTLYLQMSSLKSEDTAIYYCARHSEVRPWFGYWGQGTLVTVSA VL: DIVMSQSPSSLAVSVGEKVTLTCKSSQSLLYSGNQKNYLAWYQQNPGQSPKLLIYWASTRESGVPDRFTGSGSGTDFTLTISSVKAEDLAVYYCQQYYTYPPTFGAGTKLGLK | 1.1 | 21.2 | 124 | no binding |
| CD98HC.04.012 (antibody, V domains shown, hybridoma IgG) VH: QVQLQQSGADLVRPGDSVKISCKGSGYTFTDNTLHWVKQSHAKSLEWIGVISPYYGDASYNQKFKGKATMTVDKSSSTAYMELARLTSEDSAIYYCARVGGRLRLGYYFDHWGQGTTLTVSS VL: NIMMTQSPSSLAVSAGEKVTMNCKSSQSVLSSSNQKNYLAWYQQKPGQSPKLLIYWASTRESGVPARFTGSGSGTDFSLTITSVQAEDLAVYYCLQYLSSYTFGGGTKLEIK | 1.1 | 28.3 | 155 | no binding |
| CD98HC.04.022 (antibody, V domains shown, hybridoma IgG) VH: EVQLQQSGAELVKPGASVKLSCTASGFNIKDTFMHWMKQRPEQGLEWIGRIDPANANTRYDPKFQGKATITTDTSSNTAYLQLSSLTSEDTAVYYCARDVYYDVWGAGTTVTVSS VL: DILMTQSPSSMSVSLGDTVTITCHASQGISSNIGWLQQKPGRSFKGLIYHGSNLEDGVPSRFTGSGSGTDYSLTISGLESEDFADYYCVQYAQFPRTFGGGTKLEIQ | 1.1 | 16.6 | 102 | no binding |
| CD98HC.04.018 (antibody, V domains shown, hybridoma IgG) VH: QIQLVQSGPELKKPGETVKISCKASGYTFRNYGMNWVKQAPGKGLKWMGWINTYTGEPTYAEDFKGRFAFSLETSASTAYLQINKLKNEDEATYFCARGEAHWYFDVWGAGTTVTVSS VL: QIVLTQSPAIMSASLGERVTMTCTASSSVSSSYLYWYQQKPGSSPKLWIYSIFNLASGVPARFSGSGSGTSYSLTISSMEAEDAATYYCHQYHRSPPTFGGGTKLEIK | 1.1 | 50.3 | 335 | no binding |
| CD98HC.04.009 (antibody, V domains shown, hybridoma IgG) VH: QVQLKESGPGLVAPSQSLSITCTVSGFSLTSYGVHWVRQPPGKGLEWLGVIWAGGSTYYNSALMSRLSISKDNAKSQVLLKMSSLQTDDTAMYYCARDNYGGVYLDVWGAGTTVTVSS VL: ENVLTQSPASMSASPGEKVTMTCRASSSVSSSYLHWYQQKSGASPKLWIYSTSNLASGVPARFSGSGSGTSYSLTISSVEAEDAATYYCQQYSGYPLTFGSGTKLEIK | 1.1 | 18.5 | 131 | no binding |
| CD98HC.04.045 (antibody, V domains shown, hybridoma IgG) VH: QIQLVQSGPELKKPGETVKISCKASGYSITNFGMNWVKQAPGKGLKWMGWVNTYTGEPTYADDFKGRFAFSLETSASTASLQINNLKNEDTATYFCTRSVITYTMDYWGQGTSVTVSS VL: DIQLTQSPSSLSASLGERVSLTCRASQEISGYLSWLQQKPDGTIKRLIYAASTLDSGVPKRFSGSRSGSDYSLTISSLESEDFADYYCLQYASYPRTFGGGTKVEIK | 1.2 | 2.4 | 4 | no binding |
| CD98HC.03.002 (antibody, V domains shown, hybridoma IgG) VH: DVQLVESGGGLVQPGGSRKLSCAASGFTFSTFGMHWVRQAPEKGLEWVAYISGGSTNIYYADTVKGRFTISRDNPKNTLFLQMTSLRSEDTAMYYCARETTLLATNFDYWGQGTTLTVSS VL: DIQMTQTTSSLSASLGDRVTISCRASQDISNYLNWYQQKPDGTVKLLIYYTSRLHSGVPSRFSGSGSGTDYSLTISNLEQEDIATYFCQQGSTLPRTFGGGTKLEIK | 1 | 28.5 | 233 | no binding |
| CD98HC.04.003 (antibody, V domains shown, hybridoma IgG) VH: QVQLQQSGAELAKPGASLKMSCKASGYTFTDYYIHWVKQRPGQDLEWIGYINPNSAYTDSNQKFKDKATLTADKSSNTAYMQLSSLTSEDSAVYYCARKGHFYAPSFAYWGQGTLVTVSA VL: DIQMTQTTSSLSASLGDRVTISCRASQDISNYLNWYQQKPDGTVKLLIYYTSRLHSGVPSRFSGSGSGADYSLTISNLQQEDIATYFCQQGDTLPYTFGGGTKLEIE | 1.1 | 3.2 | 13.8 | no binding |
| CD98HC.04.011 (antibody, V domains shown, hybridoma IgG) VH: DVQLQESGPDLVKPSQSLSLTCSVTVYSFTSVYSWHWIRQFPGNKLEWMGYIHDSGTTNYNPSLKSRISVTRDTSKNQFFLQLNSVTTEDTATYYCARGRPYGYDGFAYWGQGTLVTVSA VL: DIQMTQSSSYLSVSLGDRVTITCKASDHINNWLAWYQQKPGNAPRLLITGAVNLETGVPSRFSGSGSGKDYTLSITSLQTEDVATYYCQQYWSIPRTFGGGTNLEIK | 1.1 | 31 | 192 | no binding |
| CD98HC.04.006 (antibody, V domains shown, hybridoma IgG) VH: EVNLVESGGDLVQPGGSLRLSCATSGFTFTDYFMSWVRQPPGKALEWLGFIRNKAYGYTTEYSASVKGRFTISRDNSQSIFYLQMNTLRLEDSATYYCARGPFISTAPFAYWGQGTLVTVSA VL: DIVMSQSPSSLAVSVGETVTMSCKSSQSLLYSSNQKNYLAWYQQKPGQSPKLLIYWGSTRESGVPDRFTGSGSGTDFTLTISSVKAEDLAVYYCQHYYGYPWTFGGGTKLEIK | 1.1 | 39 | 197 | no binding |
| CD98HC.03.031 (antibody, V domains shown, hybridoma IgG) VH: QVQLQQSGAELVRPGVSVKISCKASGYTFTDYAMHWVKQSHAKSLEWIGVISTYYGDTTYNQKFKDKATMTVDKSSSTAYLELARLTSEDSAIYYCARVWLLSYAMDNWGQGTSVTVSS VL: DIVMTQSQRFMSTSVGDGVRITCKASQNVRTAVAWYQQKPGQSPKALINLAPNRHTGVPDRFTARGSGTDFTLTISNVQSEDLADYFCLQHWNYPLTFGAGTKLELK | 1.2 | 38.9 | 198 | no binding |
